Key:
[1] = target: His-tagged PvBDP1 ankyrin domain (fragment 1-220) (P. vivax); assay: thermal shift assay
[2] = target: Strep-tagged ACDC domain of PvAP2-I (residues 30-180) (P. vivax); assay: thermal shift assay

Substance	Tm of the ankyrin domain with peptide at a 1:10 molar ratio (50.0°C alone) [1] [°C]	Tm of the ankyrin domain with peptide at a 1:40 molar ratio (50.0°C alone) [1] [°C]	Tm of the ACDC domain with peptide at a 1:10 molar ratio (61.1°C alone) [2] [°C]	Tm of the ACDC domain with peptide at a 1:40 molar ratio (61.1°C alone) [2] [°C]
synthetic peptide corresponding to the α3 helix of ASAIR of PvAP2-I (residues 280-310)	50.7	51.2		
synthetic peptide corresponding to PvBDP1 BAAS (residues 275-296)			60.1	59.8

From publication doi:10.1101/2025.11.26.690747
